Molecular target: SARS-CoV-2 nucleocapsid protein (NP), full length (SARS-CoV-2, UniProt P0DTC9 1-419)
Assay: BLI

B1: 11-mer 5' TRS-derived RNA (ssRNA)
RNA: UCUAAACGAAC
- Kd: 3.83 ± 0.04 nM

— publication PMC12082725
